Experimental data reported in publication PMC11065421, “An RNA-dependent and phase-separated active subnuclear compartment safeguards repressive chromatin domains” (Molecular Cell, 2024).
Several values for one entry are separate records, joined by “and”; a condition that tells them apart may be missing. Equal values may be shown once.

Target: the molecule itself
Test: SEC; Superose 6 Increase 3.2/300; freshly purified recombinant protein concentrated up to 1 mg/ml; absorbance at 280 nm

B1: recombinant BAZ2AN (domain or fragment, UniProt Q91YE5 1-744, looked up)
chain: MEMEANDHFNFTGLPPAPAASGLKPSPSSGEGLYTNGSPMNFPQQGKSLNGDVNVNGLSTVSHTTTSGILNSAPHSSSTSHLHHPNVAYDCLWNYSQYPSANPGNNLKDPPLLSQFPGGQYPLNGILGGNRQPSSPSHNTNLRAGSQEFWANGTQSPMGLNFDSQELYDSFPDQNFEVMPNGPPSFFTSPQTSPMLGSSIQTFAPSQDVSSDIHPDEAAEKELTSVVAENGTGLVGSLELEEEQPELKMCGYNGSVSSVESLHQEVSVLVPDPTVSCLDDPSHLPDQLEDTPILSEDSLEPFDSLAAEPVSGSLYGIDDAELMGAEDKLPLEGNPVISALDCPALSNANAFSLLADDSQTSASIFVSPTSPPVLGESVLQDNSFGLNSCSDSEQEEIETQSSNFQRPLTEPAPDQPPSTQLHPAVSPTASPAASLTASAEISPAVSPVASSPVPPEVFVAVSPASSPALPAISLEASMTTPVTSPQGSPEPSPAAAFQTVSPARKNVSSAPKARADREETTGGAVAVSGSGDVLKRRIATPEEVRLPLQHGWRREVRIKKGSHRWQGETWYYGPCGKRMKQFPEVIKYLSRNVVHSVRREHFSFSPRMPVGDFFEERDTPEGLQWVQLSAEEIPSRIQAITGKRGRPRNNEKAKNKEVPKVKRGRGRPPKIKMPELLNKTDNRLPKKLETQEILSEDDKAKMTKNKKKMRQKVQRGESQTPVQGQARNKRKQDTKSLKQKDTKK
notes: BAZ2A (TIP5) N-terminal region, aa 1-744; also called BAZ2AN-Hist; source: E. coli BL21(DE3), purified (Glutathione Sepharose, PreScission cleavage, HisTrap)
- stoichiometry N: 4 units and 6 units
